Values joined by “and” are separate entries in the source; they are usually repeats but may differ in a detail not shown here. Equal values may be shown once.
Experiments:
[1] = target: T1, Analog BK: CNP22, K4R, G15S
T1 chain: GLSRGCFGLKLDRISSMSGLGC

PEG1K-CNP22 = target: T2, PEG1K-CNP22
T2 chain: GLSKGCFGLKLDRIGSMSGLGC

[2] = target: T3, Analog CF: GQPREPQVYTLPPS-CNP22 (IgG1(Fc) fragment)
T3 chain: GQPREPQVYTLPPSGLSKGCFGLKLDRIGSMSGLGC

(PEO12)-Biotin-CNP22 = target: T4, (PEO12)-Biotin-CNP22
T4 chain: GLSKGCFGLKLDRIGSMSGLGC

[3] = target: T5, Analog AC: CNP22, K4R, G8T
T5 chain: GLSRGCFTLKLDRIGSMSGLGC

[4] = target: T6, Analog L: CNP22, N-methyl-L9, N-methyl-L11, N-methyl-L20
T6 chain: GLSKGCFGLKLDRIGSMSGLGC

[5] = target: T7, Analog H: CNP22, Beta-2-F7 (3-amino-2-phenylpropionyl)
T7 chain: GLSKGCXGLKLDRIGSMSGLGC

Analog P: CNP22, K4G = target: T8, Analog P: CNP22, K4G
T8 chain: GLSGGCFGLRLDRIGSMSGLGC

[6] = target: T9, Analog CS: GQEHPNARKYKGANPK-CNP22 (modified CNP37) (not fully specified)
T9 chain: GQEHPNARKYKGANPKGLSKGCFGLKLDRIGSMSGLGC

[7] = target: T10, Analog CL: GVPQVSTSTGANQQ-CNP22, K4R (HSA fragment)
T10 chain: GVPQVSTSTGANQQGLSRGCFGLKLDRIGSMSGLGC

[8] = target: T11, Analog AY: GANRR-CNP22, K4R (CNP-27)
T11 chain: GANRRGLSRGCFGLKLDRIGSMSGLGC

[9] = target: T12, Analog AT: CNP22, G1E, K4E
T12 chain: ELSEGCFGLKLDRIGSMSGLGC

[10] = target: T13, Analog AW: Heptanoic acid (N-term.)-CNP22, G1E, K4E
T13 chain: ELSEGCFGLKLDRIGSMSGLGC

[11] = target: T14, Analog E: CNP22, D-F7 (D-Phe)
T14 chain: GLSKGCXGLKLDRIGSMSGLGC

[12] = target: T15, Analog B: CNP22, N-methyl-F7 (methylated amide)
T15 chain: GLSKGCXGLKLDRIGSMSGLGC

[13] = target: T16, Analog BJ: CNP22, K4R, G15N
T16 chain: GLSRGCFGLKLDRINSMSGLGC

Analog AH: CNP22, K4R = target: T17, Analog AH: CNP22, K4R
T17 chain: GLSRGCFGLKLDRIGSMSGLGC

[14] = target: T18, Analog CC: DLRVDTKSRAAWAR-CNP22
T18 chain: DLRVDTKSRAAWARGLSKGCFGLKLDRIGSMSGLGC

Analog BA: ER-CNP22, K4R = target: T19, Analog BA: ER-CNP22, K4R
T19 chain: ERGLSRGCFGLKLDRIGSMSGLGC

[15] = target: T20, Analog X: CNP22, K4G, 3-methyl-F7
T20 chain: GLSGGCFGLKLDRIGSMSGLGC

Analog AZ: R-CNP22, K4R = target: T21, Analog AZ: R-CNP22, K4R
T21 chain: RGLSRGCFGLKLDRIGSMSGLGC

PEO12-GANPR-CNP22(K4R) = target: T22, PEO12-GANPR-CNP22(K4R)
T22 chain: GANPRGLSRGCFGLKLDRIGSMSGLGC

[16] = target: T23, Analog K: CNP22, N-methyl-L9, N-methyl-L20
T23 chain: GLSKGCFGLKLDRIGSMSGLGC

PEG2K-CNP22 = target: T24, PEG2K-CNP22
T24 chain: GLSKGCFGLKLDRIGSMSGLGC

PEG20K-CNP22 = target: T25, PEG20K-CNP22
T25 chain: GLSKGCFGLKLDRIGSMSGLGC

PEO24-GANRR-CNP22(K4R) = target: T26, PEO24-GANRR-CNP22(K4R)
T26 chain: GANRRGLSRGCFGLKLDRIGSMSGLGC

PEG1K-GANRR-CNP22(K4R) = target: T27, PEG1K-GANRR-CNP22(K4R)
T27 chain: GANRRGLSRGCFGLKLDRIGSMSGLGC

Analog BM: CNP53 = target: T28, Analog BM: CNP53
T28 chain: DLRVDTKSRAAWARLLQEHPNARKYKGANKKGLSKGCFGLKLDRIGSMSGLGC

PEG5K-CNP22 = target: T29, PEG5K-CNP22
T29 chain: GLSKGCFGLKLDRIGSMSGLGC

PEO12-CNP22 = target: T30, PEO12-CNP22
T30 chain: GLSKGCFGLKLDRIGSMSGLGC

[17] = target: T31, Analog V: CNP22, K4G, 3,4-dichloro-F7
T31 chain: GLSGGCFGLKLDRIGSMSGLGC

[18] = target: T32, Analog AV: Pentanoic acid (N-term.)-CNP22, G1E, K4E (not fully specified)
T32 chain: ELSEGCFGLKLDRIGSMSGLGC

PEO12-GANRR-CNP22(K4R) = target: T33, PEO12-GANRR-CNP22(K4R)
T33 chain: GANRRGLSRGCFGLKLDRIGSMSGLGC

[19] = target: T34, Analog A: CNP22, C6-CH2-NH (reduced carbonyl)
T34 chain: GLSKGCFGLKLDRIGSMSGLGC

[20] = target: T35, Analog G: CNP22, 3-chloro-F7
T35 chain: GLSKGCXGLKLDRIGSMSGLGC

[21] = target: T36, PEO4-(PEO12)3 (branched)-CNP22
T36 chain: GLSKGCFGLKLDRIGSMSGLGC

[22] = target: T37, wild-type C-type natriuretic peptide 22 (CNP22)
T37 chain: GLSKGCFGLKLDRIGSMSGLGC

[23] = target: T38, Analog M: CNP22, N-methyl-L9, N-methyl-L11
T38 chain: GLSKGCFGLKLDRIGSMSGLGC

[24] = target: T39, Analog N: D-CNP22 (all D-amino acids)
T39 chain: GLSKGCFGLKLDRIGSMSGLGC

PEO24-CNP22 = target: T40, PEO24-CNP22
T40 chain: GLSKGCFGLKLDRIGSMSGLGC

[25] = target: T41, Analog BL: QEHPNARKYKGANKK-CNP22 (CNP37)
T41 chain: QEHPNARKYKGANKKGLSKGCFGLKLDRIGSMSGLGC

[26] = target: T42, Analog CK: GQPREPQVYTGANQQ-CNP22, K4R (IgG1 fragment)
T42 chain: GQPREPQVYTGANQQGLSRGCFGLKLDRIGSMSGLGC

PEO12-R-CNP22(K4R) = target: T43, PEO12-R-CNP22(K4R)
T43 chain: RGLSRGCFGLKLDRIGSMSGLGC

[27] = target: T44, Analog CG: GANSS-CNP22, K4R
T44 chain: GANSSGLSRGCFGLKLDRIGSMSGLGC

[28] = target: T45, Analog F: CNP22, t-butyl-G8
T45 chain: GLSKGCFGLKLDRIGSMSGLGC

PEG2K-CNP17 = target: T46, PEG2K-CNP17
T46 chain: CFGLKLDRIGSMSGLGC

[29] = target: T47, Analog BB: Heptanoic acid (N-term.)-CNP22, G1E
T47 chain: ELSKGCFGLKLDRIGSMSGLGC

B1: recombinant human neutral endopeptidase (NEP) (protein)
chain: DDGICKSSDCIKSAARLIQNMDATTEPCTDFFKYACGGWLKRNVIPETSSRYGNFDILRDELEVVLKDVLQEPKTEDIVAVQKAKALYRSCINESAIDSRGGEPLLKLLPDIYGWPVATENWEQKYGASWTAEKAIAQLNSKYGKKVLINLFVGTDDKNSVNHVIHIDQPRLGLPSRDYYECTGIYKEACTAYVDFMISVARLIRQEERLPIDENQLALEMNKVMELEKEIANATAKPEDRNDPMLLYNKMTLAQIQNNFSLEINGKPFSWLNFTNEIMSTVNISITNEEDVVVYAPEYLTKLKPILTKYSARDLQNLMSWRFIMDLVSSLSRTYKESRNAFRKALYGTTSETATWRRCANYVNGNMENAVGRLYVEAAFAGESKHVVEDLIAQIREVFIQTLDDLTWMDAETKKRAEEKALAIKERIGYPDDIVSNDNKLNNEYLELNYKEDEYFENIIQNLKFSQSKQLKKLREKVDKDEWISGAAVVNAFYSSGRNQIVFPAGILQPPFFSAQQSNSLNYGGIGMVIGHEITHGFDDNGRNFNKDGDLVDWWTQQSASNFKEQSQCMVYQYGNFSWDLAGGQHLNGINTLGENIADNGGLGQAYRAYQNYIKKNGEEKLLPGLDLNHKQLFFLNFAQVWCGTYRPEYAVNSIKTDVHSPGNFRIIGTLQNSAEFSEAFHCRKNSYMNPEKKCRVW
- NEP cleavage t1/2 [1]: ≥ 2.67 h
- NEP cleavage t1/2 (PEG1K-CNP22): > 2.67 h
- NEP cleavage t1/2 [2]: > 2.67 h
- NEP cleavage t1/2 ((PEO12)-Biotin-CNP22): 2.33 h
- NEP cleavage t1/2 [3]: 1.33 h
- NEP cleavage t1/2 [4]: 0.5 h
- NEP cleavage t1/2 [5]: 1.33 h
- NEP cleavage t1/2 (Analog P: CNP22, K4G): 1.13 h
- NEP cleavage t1/2 [6]: > 2.67 h
- NEP cleavage t1/2 [7]: > 2.67 h
- NEP cleavage t1/2 [8]: 1.08 h
- NEP cleavage t1/2 [9]: 1 h
- NEP cleavage t1/2 [10]: < 0.333 h
- NEP cleavage t1/2 [11]: 2.17 h
- NEP cleavage t1/2 [12]: 1.33 h
- NEP cleavage t1/2 [13]: 2.5 h
- NEP cleavage t1/2 (Analog AH: CNP22, K4R): 1.33 h
- NEP cleavage t1/2 [14]: > 2.67 h
- NEP cleavage t1/2 (Analog BA: ER-CNP22, K4R): 1.5 h
- NEP cleavage t1/2 [15]: 1.13 h
- NEP cleavage t1/2 (Analog AZ: R-CNP22, K4R): ≥ 2.67 h
- NEP cleavage t1/2 (PEO12-GANPR-CNP22(K4R)): 1.33 h
- NEP cleavage t1/2 [16]: 1.33 h
- NEP cleavage t1/2 (PEG2K-CNP22): > 2.67 h
- NEP cleavage t1/2 (PEG20K-CNP22): > 2.67 h
- NEP cleavage t1/2 (PEO24-GANRR-CNP22(K4R)): > 2.67 h
- NEP cleavage t1/2 (PEG1K-GANRR-CNP22(K4R)): > 2.67 h
- NEP cleavage t1/2 (Analog BM: CNP53): > 2.67 h
- NEP cleavage t1/2 (PEG5K-CNP22): > 2.67 h
- NEP cleavage t1/2 (PEO12-CNP22): ≥ 2.67 h
- NEP cleavage t1/2 [17]: 1.13 h
- NEP cleavage t1/2 [18]: 2 h
- NEP cleavage t1/2 (PEO12-GANRR-CNP22(K4R)): > 2.67 h
- NEP cleavage t1/2 [19]: 0.917 h
- NEP cleavage t1/2 [20]: 2.25 h
- NEP cleavage t1/2 [21]: > 2.67 h
- NEP cleavage t1/2 [22]: 1.33 h
- NEP cleavage t1/2 [23]: > 2.67 h
- NEP cleavage t1/2 [24]: > 2.67 h
- NEP cleavage t1/2 (PEO24-CNP22): > 2.67 h
- NEP cleavage t1/2 [25]: > 2.67 h
- NEP cleavage t1/2 [26]: ≥ 2.67 h
- NEP cleavage t1/2 (PEO12-R-CNP22(K4R)): ≥ 2.67 h
- NEP cleavage t1/2 [27]: 1.58 h
- NEP cleavage t1/2 [28]: 1.33 h
- NEP cleavage t1/2 (PEG2K-CNP17): > 2.67 h
- NEP cleavage t1/2 [29]: 0.75 h and 1.08 h

— US20100331256
